Measurements from the supplement of paper PMC12455559.

Experiment: purified protein yield per well (BCA); higher = higher soluble expression
Description: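 Candidate PET hydrolases were expressed in E. coli C41(DE3) in 2 mL autoinduction cultures in 24-deep-well plates, Ni-bead purified and released by SUMO protease cleavage on an OT-2 robot. Yield per well was measured by BCA; values below 25 ug (0.1 mg/mL) are below the detection threshold. Melting temperature was measured by differential scanning fluorimetry with Sypro Orange, ramping from 25 C at 0.3 C/step.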

| Sequence | purified protein yield per well |
| --- | --- |
| CDSILFQSIASPGPYNVLSIDESDGIRNGQDYNGATIFYPEGNLYNLPSIVFVPGYSNTQFTIQNWGLFLASYGIVTMTIGTNTLIDSHIQRKDALLDALITIKQENVRSSSPLYNSLDTLKLALGGFSKGGGGAQLAASIGQNIKAVIALYPWLENISAVDLNHDVPVLIVSGNLDIIAPPSLHADVHYMYTPETTKKLKYEIAFATHDPLIGPNAGFGEVGKKTLSWLQTFLLGDSCFCPYLLDTPSNASIYMSNLNCTEISTNTYNLESNQEKKILKIIDIFGREVRPKKNMILFYIYNDQSVKKIIIK [TEP139] | < 25 µg |
| AAPATAPSVQRAAANPHERGPAPTEESITAEEGPFEFETIDVPAGSGDGFNQGTIYAPTDLSQGTFGAIAVSPGFVSPEALISWYGPRLASQGFVVMTIETNTLLDQPAARGDQLLAALDYLTGGDSPVRDRVDTGRLAVTGHSMGGGGTLEAARERPGLRAAVPLAPWNLNSDWSAVRTPTMILGAQNDFIAANGLHSEPFYEGLTSAPEKAYAEIANTGHMSFNTPNDVIAKYTIAWMKRYVDDDTRYERFLCPAPSDDPALVEYRDTCPGG [TEP002] | < 25 µg |
| MREHEDAMSGGRMPSGARPPRLIGLAVAAIAAVVTMIAAMLAVGPVSAQPAPTAVTPHSTQRGPDPTLAMIEASRGPFATAQQGVAPGNGFNGGEIYYPTDTSQGTWGALVIIPGYTARCVNQPAPEEAWMGPWLSSFGFVVLCMETNSPNDFDTARGQEALAALNWLTTASPVRGEVDPNRLSVMGHSMGGGGVVYAVEHQPSLRAGIGLAPFSPSQNMAGDKVPTLILGGQNDSTVTPSYLSGLYATMPAATQSAFAQIAGAGHGFYTSPNNVMMKLAIPWLKVFVDSDNRYEQFLCPTLPDPSQISIYRSKCPYVPPGGGPTSTTTTPPPPAGACQAVYQPQNSWPGGFQGLVTVTAGSSPVSGWTVTWALSGGQAITQLWSGNLTTSGSAVTVKNASYNGSLAAGASATFGFTATGAASTPTLTCTSP [ESM146] | < 25 µg |
| ATVTPIRMETRIRTSSFTRFTSTPTACAFDSPIAKAFSSVRSRIDASRLAVAGHSMGGGGTLEAAKDRPGLRAAVPLAPWNTTKNWSGNRVPTLIIGGQSDTIAAVSSHAVPFYTSLPTTPDKAYLELAGASHFFPQSANADVAMMFVSWLKRFVDGDTRYEQFLCPGPSVSGSVSRYSSTCPLASGPTPTSTTTATTGTSTTRTTTTSSGGSGGGACSASYATSNAWQGGFVGTVTVRADLALSGWQVTLALPAGTTITGSWNGVRSGSTGTVQVRNETYNGILASGQTTSFGFQGSGSPSGLTVTSCTAN [ESM108] | < 25 µg |
| EPYASIVIVPGYGMIEASIQDWGPFFASWGIIAMTIGTNNPYDFPEERVEALLDAIETIKQENDRINSPIYEKVDLNSFAVSGWSMGGGGAQLAAVIEPTLKAVIALCPWLDNWVLEPDDLNHSVPTLIFSGQYDVNAPPYLHANIHYNYTPSTTDKLLFEVEYGDHYVANGPDGGSGYVGDRAHEWINNYLLGD [TEP055] | < 25 µg |
| MEAIVRRGGTRGQVTGILVAVLAMVVALAGAVLAARPALAQPRDTAPGNPYQRGPDPTVAMIEASAGPFATASTSVPAGHGFNGGTVYYPTDTSLGTWGALAIVPGYSALFANEEAWMGPWLASFGFVVIGVETTTRTDSADARGTELLAALNYLTTQSPVRDRVDPNRLSVLGHSAGGAGAMLAAERQPTLKAAVGLAPGSPVGNLSLAADTVPTMVIGGQNDAVVTPSYLSGLYATMPASTQSDFAQVAGADHVYYTHPNNVEMKLLIPWLKTFLDNDTRYTPFLCPAPPDPSSISLYTPKCPYVPGGSAPGGGNTGALHAVGAAKCLAAPSTGAPGAQVTIGTCGGQAGQIWTHTAAAQLTVTLGGATLCLDASGQGSSPGTKVIVWSCNGQVNQQWNLNADGTVTGAQSGLCLDVTGASTADGAPVELWSCNGGGNQQWHLG [TEP068] | < 25 µg |
| QTTAPTSSSLNATAGPYSVSTSSVTLPVGFGGGTVYYPTQTGKYGVIAISPGFTATQSSIAWLGRRLATHGFVVLTMNTLTTLDQPASRANQLMAALNYVLNSSPSAVRSRADGTRTAVAGHSMGGGGSLIAARDYPTLKASYPMTPWSPTSNFSTVRVPTMIIGADGDTIAPVATMSRVYYQNLPSTTSKAYGELNNATHFAPNMTNTPIGRYAVTWMKRFVDSDTRYSPFLCGAPHQAYATSLVFDRYSQNCPY [ESM083] | < 25 µg |
| AANPYERGPAPTTAVLEAARGPFATTSAAIARTSSFGGGTVYYPTDTSQGTFGAVAISPGFSATQSSVAWYGPRLASHGFVVVTINTLSGWDDPDSRARQLLAALDYLTNTHAVRTRIDKTRLGVMGHSMGGGGALRASVSRPSLQAAIPLAPWHNTKNWSSDGVPTLIVGAENDTVAPVNQHAEPFYTSITGAPDKAYLELNNAGHSAPSSEGPNVTVGKFSVAWLKRFIDNDTRYEQFLCPAPRPDTRINEYRDTCPHS [TEP084] | < 25 µg |
| QTSDPTSTSLNATSGPLSISSTSVSSFSARGFGGGTIYYPSASGRYGVVAISPGYTARQSSIAWLGRRLASHGFVVITIDTNSTLDQPPSRATQLMAALDHVVNRASSTVRSRVDAARLAVAGHSMGGGGSLIAARDNPSLRAVYPMTPWSVSKDFSAVRVPTMIIGADNDSVASVVTHARPFYSSLAASLPKAYGELNNASHFAPNTTNTPIGRYAVTWMKRFVDGDTRYSPFLCGTPHNQYATSQVFARYQQNCPY [ESM134] | < 25 µg |
| VPAPPAVERGPAPTPASVTAAVGPHAVITAAVRRADVAGFGGGTLLAPADAAGGPYGVVAVAPGFREGAATLAWLGPRLASRGFVVLLVDTLDPDEFPTARAAELLAAIDWVVADSPVRDRADPARAAVLGHSMGGGAALEAALARPGLRAAIPMAPWDPAADFAGVRVPTLVLAAEDDTIAPPAEHAERFYASLTAPARAYALLPGRDHDFSNAPDDVTAGLVLSWLARFVDGDTRYTRLLCRGTLSAAVASQQDTCPAP [TEP074] | < 25 µg |
| ADNPYERGPAPTNSSIEASRGPFAVSETSVSSLVSGFGGGTIYYPTSTSAGTFGAVAISPGYTGTQSTMAWLGPRLASQGFVIFTIDTNSVYDQPDSRASQLLAALDYLTQQSTVRTRIDSSRLGVMGHSMGGGGTLRAASQRPSLQAAIPLTGWHTTKNWSSVRVPTLVVGAESDSVAPVSSHSEPFYTSLPSTLDKAYLELNNASHFAPNSSNTTIAKYSISWLKRFIDNDTRYEQFLCPAPGRSTLIEEYRDTCPHS [TEP028] | < 25 µg |
| VQIGPAPTSAALNKDGSFSVSSSSVSMLSARGFGSGTIYYPSTSGQYGVIAVCPGFTGTSSSISWFARRLASHGFVTIAMNTTTTLDQPASRATQLAAALKYVLNSSSSTVRSRIRAADRGVAGHSMGGGGTLIASQSDSTLRVGIPMTPWNLSTNFSSVKVPQMIFGADGDTIAPYASHARPFYNSLSKAPKAYGLLKSATHFTPNATDQRIGRYGVAFAKRFVDGDTRYSPFLCGSEHNSYATSSKFATYLSNCPY [ESM148] | < 25 µg |
| QTNPYARGPNPTDSLLEASRGPFSISSFTVSRPSGYGAGTVYYPTNAGGTVGAIAIVPGYTARQSSINWWGPRLASHGFVVITIDTNSTLDQPSSRSRQQMAALSQVVSLSRTSTSPIYNKVDASRLGVMGWSMGGGGSLISARDNPSIKAAAPQAPWNTSSNFSSMTVPTLIFACENDSIASTSSHASPMYNSMRLNPRQYFEINNGSHSCANSGNSNQALIGKRGVAWMKRFMDNDTRYTSFACSNPNTFSVSEFRTANCS [ESM180] | < 25 µg |
| ADNPYERGPDPTEASIEAPRGPYAVAEKSVSALEATGFGGGTIHYPTSTAEGTFGAVAIAPGYTALQSSVAWLGPRLASQGFVVITIDTHTTVDQPASRGDQLLAALDHLTRRDSVRSRVDSGRLGVMGHSMGGGGSLEAAKDRPSLQAAIPLTGWNLDKTWSEVRVPTMLIGADGDTIAPVATHSQPFYESLPSTLDRAYLELNDAGHFTPNAPDTTIAKYSVSWLKRFIDNDTRYEQFLCPLPRPSRTIDEYRGNCPHTS [TEP143] | < 25 µg |
| MPRDGERKQKPEGARVRAYRAGPGSPPRPPRPVRLALLAVAFVTAAVAALFAVQPASAQPSAAAVTPNSTQRGPDPTIQSIEASRGTFATAQSSVAPGNGFNGGVIYYPTDTSQGTWGALAIVPGYTAKCANEEAWMGPWLASFGFVVICIETNSTTDFDVARGQELLAALNWLTTASPVRNEIDPNRLAVLGHSAGGAGAIEAAEQRPSLRAMIGLAPGFPGQGLSMLTDRVPTLVVGGQNDTVVTPSYLSGLYATMPASTQSAFAQIAGADHVYYTHANNVEMKLIIPWLKIFVDGDTRYEQFLCPTLPDPSTISIYQPKCPYVPPGGGSPSPSASASASASASASASASASASASASASASSSPSASASASASSSPSGVPAGGCAAVYQAVGSWPGGYQAQVTVTAGGAPITGWSVRWNLSSGQSISSLWNGSYTVSGSSVTVANASYNGTLAAGASTTFGFTANGAPSTPTLTCTGK [ESM145] | < 25 µg |
| QPIDSLETLSIKEQSTITLPTTLATKIPLTEVPATKIPLTTTTSTSPTSNCIPDSVITAAELSATRDNGPFTVATKSVPRQLANGFGGGTIHYPTNAGDCGLLGGIAVIPGYVSYEASIKWWGPRLASWGFVVITIDTNSIYDDPDSRATQLSAALDHILSDSTVGAQIDSTRLGAIGWSMGGGGALQLATKRSDIRVIIPQTPYHDKDYGNMDTPALFITCQNDRIASNKKYSSPFYNNAAGAKMKIEIKNGSHFCPSYRFNEILLSKPGIAWMHRYINGDTRFDKFLCNNENYGNSPRISAYDYKDCG [TEP174] | < 25 µg |
| CATAGSTTDSAPVSAASLSVDGAYEVRTYSDFPDVPEFGAATIYYPVGVPQPIGGVAIAPGFTEEQRHISWWGPRLASHGYAVLVLDTNERRERPDARASALIAGVTLLRAEGLRQGSPLFGGIDLAKMAIMGHSMGGGGALLAANEHSDQIRAAIPFTPWEPETNLGGVSAPTLVLAGAADGIAEVDEHAWRHFSMIPESTPKVYLEIAGGDHYIADTTRGTDLATVGRYAIAWLKLYVDRDERYRDFIYGE [TEP065] | < 25 µg |
| HAPVHQPAVAHHHAPFAVRTTAVPKTAVTTFGGGVIYTPQDTGKAVLGAVVITPGFTDTNADEKEMAELVASQGFVAFAIDTLDTSDLPAQRSTEILAAADYLTGQSAVKSQVSAKDVGLIGYSFGGGGTMEAAQARPSIKAAIGLMPFDFPDANDPNAQYATYPKLTTPTLVITGEKDDVATPKDYGKPAYDSIPAGTPKQYLELKGLGHGAGEHVPVPTIRNAVTAFLKRYLDGNSAYAKFICPAPKVGGPISVSLSSCPKG [TEP026] | < 25 µg |
| VQNGPAPTLAALKADGPYAITSQAVAGNGFGAGTIYTPTAAGKYALVAICPGFVSAQSTMAGLAKRLATHGFVVVAISTNTLLDFPSSRATQLLAALKTVSALNTGAVAGKVDTTRQAVSGWSMGGGGTLEAAGATPGLVAAVAFAPWDTSTTKMKVNKVPAAIIGGSSDAVAPVASHSQKFYD [ESM063] | < 25 µg |
